{"source": "paper PMC4143292", "about": "“An Enzymatic Platform for the Synthesis of Isoprenoid Precursors” (PLoS ONE, 2014)", "key": {"[1]": {"substrate": "C[C@@](O)(CCO)CC(=O)O", "assay": "PK/LDH-coupled NADH oxidation, progress curves", "type": "biochemical, Staphylococcus aureus", "conditions": "ATP 5.0 mM, MgCl2 1.0 mM + nucleotide, KCl 50 mM, Hepes pH 8.0, 25 C, apparent", "from_the_text": "PK/LDH-coupled NADH oxidation, progress curves on MVK (mevalonate kinase)"}, "purified protein": {"substrate": "CC(=O)O", "assay": "purified protein", "conditions": "CoA 2.0 mM, ATP 4.0 mM, MgCl2 1.0 mM + nucleotide, KCl 50 mM, Hepes pH 8.0, 25 C, apparent"}, "[2]": {"substrate": "CC(C)(COP(=O)(O)OP(=O)(O)OC[C@H]1O[C@@H](n2cnc3c(N)ncnc32)[C@H](O)[C@@H]1OP(=O)(O)O)[C@@H](O)C(=O)NCCC(=O)NCCS", "assay": "coupled NADH oxidation, progress curves", "type": "biochemical, Saccharomyces cerevisiae", "conditions": "acetate 2.0 mM, ATP 4.0 mM, MgCl2 1.0 mM + nucleotide, KCl 50 mM, Hepes pH 8.0, 25 C, apparent", "text": "coupled NADH oxidation, progress curves on ACS (acetyl-CoA synthetase)"}}, "data": [{"protein": "MVK (mevalonate kinase) (Staphylococcus aureus) (protein, N-terminal His9-GST tag removed with PreScission protease; expressed in E. coli BL21(DE3)) MTRKGYGESTGKIILIGEHAVTFGEPAIAVPFNAGKIKVLIEALESGNYSSIKSDVYDGMLYDAPDHLKSLVNRFVELNNITEPLAVTIQTNLPPSRGLGSSAAVAVAFVRASYDFLGKSLTKEELIEKANWAEQIAHGKPSGIDTQTIVSGKPVWFQKGQAETLKTLSLDGYMVVIDTGVKGSTRQAVEDVHKLCEDPQYMSHVKHIGKLVLRASDVIEHHNFEALADIFNECHADLKALTVSHDKIEQLMKIGKENGAIAGKLTGAGRGGSMLLLAKDLPTAKNIVKAVEKAGAAHTWIENLGG", "values": [{"measurement": "Km", "setting": "[1]", "result": 27, "unit": "µM"}, {"measurement": "kcat", "setting": "[1]", "result": 19, "unit": "s⁻¹"}]}, {"protein": "ACS (acetyl-CoA synthetase) (Saccharomyces cerevisiae S288C) (protein) MSPSAVQSSKLEEQSSEIDKLKAKMSQSAATAQQKKEHEYEHLTSVKIVPQRPISDRLQPAIATHYSPHLDGLQDYQRLHKESIEDPAKFFGSKATQFLNWSKPFDKVFIPDPKTGRPSFQNNAWFLNGQLNACYNCVDRHALKTPNKKAIIFEGDEPGQGYSITYKELLEEVCQVAQVLTYSMGVRKGDTVAVYMPMVPEAIITLLAISRIGAIHSVVFAGFSSNSLRDRINDGDSKVVITTDESNRGGKVIETKRIVDDALRETPGVRHVLVYRKTNNPSVAFHAPRDLDWATEKKKYKTYYPCTPVDSEDPLFLLYTSGSTGAPKGVQHSTAGYLLGALLTMRYTFDTHQEDVFFTAGDIGWITGHTYVVYGPLLYGCATLVFEGTPAYPNYSRYWDIIDEHKVTQFYVAPTALRLLKRAGDSYIENHSLKSLRCLGSVGEPIAAEVWEWYSEKIGKNEIPIVDTYWQTESGSHLVTPLAGGVTPMKPGSASFPFFGIDAVVLDPNTGEELNTSHAEGVLAVKAAWPSFARTIWKNHDRYLDTYLNPYPGYYFTGDGAAKDKDGYIWILGRVDDVVNVSGHRLSTAEIEAAIIEDPIVAECAVVGFNDDLTGQAVAAFVVLKNKSSWSTATDDELQDIKKHLVFTVRKDIGPFAAPKLIILVDDLPKTRSGKIMRRILRKILAGESDQLGDVSTLSNPGIVRHLIDSVKL", "values": [{"measurement": "Km", "setting": "purified protein", "result": 280, "unit": "µM"}, {"measurement": "kcat", "setting": "purified protein", "result": 10, "unit": "s⁻¹"}, {"measurement": "Km", "setting": "[2]", "result": 240, "unit": "µM"}, {"measurement": "kcat", "setting": "[2]", "result": 10, "unit": "s⁻¹"}]}]}
